Literature values in publication PMC10910070.
pKd: −log10 of the molar value.

Test system: gliadin (wheat, commercial mixture) (wheat)
Assay: not stated (cited value)
Conditions: 5 mM Tris pH 7.4, 25 C; 300 uL AuNPs + 200 uL 40 nM aptamer + 200 uL gliadin, then 200 uL NaCl (40 mM in Methods, 37 mM in Fig. 2 legend), 900 uL final

CTACACATGTCTGAATGCC [Apt-2]
pKd: 6.83

CCAGTCTCCCGTTTACCGCGCCTACACATGTCTGAATGCC [Apt-1]
pKd: 6.73
